Tests used:
Assay in all cases: EMSA
[1] = test system: tau 1N4R, P10636-7; conditions: Hill fit, EMSA: 20 nM DNA or nucleosome, 20 mM HEPES pH 7.2, 10 mM NaCl (or 150), 0.5 mM TCEP, 0.1% Tween-20, 5% sucrose, room temperature 20 min, FA: 10 nM DNA, same …
[2] = test system: PG-ptau (tau 1N4R phosphorylated by PKA and GSK-3β), P10636-7; conditions: EMSA: 20 nM DNA or nucleosome, 20 mM HEPES pH 7.2, 10 mM NaCl (or 150), 0.5 mM TCEP, 0.1% Tween-20, 5% sucrose, room temperature 20 min, FA: 10 nM DNA, same …
Chain of PG-ptau (tau 1N4R phosphorylated by PKA and GSK-3β), P10636-7 (P10636 other isoform, or with tags, fused parts or gaps): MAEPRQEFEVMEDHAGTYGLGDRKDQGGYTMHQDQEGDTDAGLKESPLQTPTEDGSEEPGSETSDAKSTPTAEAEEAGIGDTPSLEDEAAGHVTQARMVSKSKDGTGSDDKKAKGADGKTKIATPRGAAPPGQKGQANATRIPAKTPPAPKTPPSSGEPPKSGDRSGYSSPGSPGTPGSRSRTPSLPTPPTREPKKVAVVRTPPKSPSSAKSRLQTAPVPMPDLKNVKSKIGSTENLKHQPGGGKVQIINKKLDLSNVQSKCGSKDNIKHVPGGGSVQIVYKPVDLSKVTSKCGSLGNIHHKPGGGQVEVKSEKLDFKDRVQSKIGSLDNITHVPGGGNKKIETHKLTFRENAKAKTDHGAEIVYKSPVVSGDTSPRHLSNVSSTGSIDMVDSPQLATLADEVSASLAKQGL

[3] = test system: tau ΔPRD-DBR (1N4R) del191-211, P10636-7; conditions: EMSA: 20 nM DNA or nucleosome, 20 mM HEPES pH 7.2, 10 mM NaCl (or 150), 0.5 mM TCEP, 0.1% Tween-20, 5% sucrose, room temperature 20 min; FA: 10 nM DNA, same …
Chain of tau ΔPRD-DBR (1N4R) del191-211, P10636-7 (P10636 other isoform, or with tags, fused parts or gaps mutant): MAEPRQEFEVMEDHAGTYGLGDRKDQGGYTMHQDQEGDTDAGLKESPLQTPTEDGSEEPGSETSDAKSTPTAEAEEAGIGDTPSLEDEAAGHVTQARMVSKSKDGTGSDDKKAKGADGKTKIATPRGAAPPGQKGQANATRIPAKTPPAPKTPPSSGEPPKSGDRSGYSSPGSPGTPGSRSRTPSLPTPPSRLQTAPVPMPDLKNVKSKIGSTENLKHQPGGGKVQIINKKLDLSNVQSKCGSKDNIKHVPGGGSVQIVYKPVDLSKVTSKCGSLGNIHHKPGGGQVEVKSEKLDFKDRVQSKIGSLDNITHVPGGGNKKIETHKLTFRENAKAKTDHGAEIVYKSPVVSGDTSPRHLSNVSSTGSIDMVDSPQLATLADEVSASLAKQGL

Chain of tau 1N4R, P10636-7 (P10636 other isoform, or with tags, fused parts or gaps): as the sequence (P10636 other isoform, or with tags, fused parts or gaps) above

ACTACGCGGCCGCCCTGGAGAATCCCGGTGCCGAGGCCGCTCAATTGGTCGTAGACAGCTCTAGCACCGCTTAAACGCACGTACGCGCTGTCCCCCGCGTTTTAACCGCCAAGGGGATTACTCCCTAGTCTCCAGGCACGTGTCAGATATATACATCCTGTGCATGTAAGATCCAGT (double strand) [177 bp DNA (601)]
Kd ([1]; 10 mM NaCl): 135 nM | Kd ([1]; 150 mM NaCl): 188 nM | Kd ([2]; 150 mM NaCl (Fig. S12 legend says 10 mM)): 426 nM | Kd [2]: 241 nM | Kd [3]: 410 nM

CTGGAGAATCCCGGTGCCGAGGCCGCTCAATTGGTCGTAGACAGCTCTAGCACCGCTTAAACGCACGTACGCGCTGTCCCCCGCGTTTTAACCGCCAAGGGGATTACTCCCTAGTCTCCAGGCACGTGTCAGATATATACATCCTGT (double strand) [147 bp mononucleosome (linker-free)]
Kd ([1]; 10 mM NaCl): 83.4 nM

ACTACGCGGCCGCCCTGGAGAATCCCGGTGCCGAGGCCGCTCAATTGGTCGTAGACAGCTCTAGCACCGCTTAAACGCACGTACGCGCTGTCCCCCGCGTTTTAACCGCCAAGGGGATTACTCCCTAGTCTCCAGGCACGTGTCAGATATATACATCCTGTGCATGTAAGATCCAGT (double strand) [177 bp mononucleosome]
Kd ([1]; 10 mM NaCl): 106 nM | Kd [2]: 166 nM
